Reference: patent US20250011363A1, “OPTIMIZED SHORTENED PEPTIDE THAT BINDS TO ACETYLCHOLINE RECEPTOR, AND USE THEREOF” (SKINMED CO., LTD., priority 2021, published 2025)

Molecular target: acetylcholine receptor
Assay: SPR, AchR immobilised on chip, peptide 10 uM

| Binding affinity (RU) | Binder |
| --- | --- |
| 18 | RMHER [5mer-832] |
| 15 | RKSGK [5mer-809] |
| 25 | KNSAR [5mer-1136] |
| 26 | KECFK [5mer-823] |
| 28 | RKTFR [5mer-1114] |
| 14 | RFMMR [5mer-835] |
| 28 | KHCWK [5mer-1139] |
| 12 | RETHK [5mer-1104] |
| 32 | KMTMR [5mer-811] |
| 26 | KPTHK [5mer-1126] |
| 21 | RAHVR [5mer-813] |
| 13 | RHSMK [5mer-838] |
| 24 | KECFR [5mer-1116] |
| 27 | KTEGR [5mer-812] |
| 19 | RHMER [5mer-1113] |
| 26 | REWVR [5mer-1128] |
| 19 | KMNIK [5mer-1119] |
| 24 | RAAGK [5mer-831] |
| 14 | KFDAR [5mer-1129] |
| 21 | RPWHK [5mer-1107] |
| 16 | RIADR [5mer-1127] |
| 27 | RKDHR [5mer-815] |
| 28 | RMDAR [5mer-1118] |
| 11 | RHKIR [5mer-1117] |
| 11 | KCKMK [5mer-826] |
| 33 | RPPDR [5mer-1120] |
| 11 | KDTAR [5mer-840] |

| Binding affinity (RU) | Binder |
| --- | --- |
| 11 | RITMR [5mer-814] |
| 27 | RFCWR [5mer-828] |
| 20 | RKNKK [5mer-807] |
| 22 | KNEMR [5mer-841] |
| 15 | RMNIK [5mer-834] |
| 18 | RYTER [5mer-1106] |
| 12 | RESDR [5mer-821] |
| 13 | RMHMK [5mer-1110] |
| 20 | RHNVK [5mer-842] |
| 16 | RAKGK [5mer-822] |
| 26 | RKPIK [5mer-816] |
| 29 | RTTFK [5mer-1112] |
| 12 | KHWHR [5mer-818] |
| 13 | KIDMK [5mer-824] |
| 33 | KATAK [5mer-833] |
| 19 | RNPIR [5mer-1108] |
| 13 | KFCIR [5mer-808] |
| 24 | KYEKR [5mer-1123] |
| 14 | KCDGK [5mer-1131] |
| 33 | RPTKR [5mer-1105] |
| 11 | KFHKK [5mer-810] |
| 26 | KCWHR [5mer-829] |
| 18 | KKAGR [5mer-827] |
| 19 | RNTIK [5mer-819] |
| 24 | RENHK [5mer-1138] |
| 24 | KTENK [5mer-1142] |
| 20 | RNTIR [5mer-804] |

| Binding affinity (RU) | Binder |
| --- | --- |
| 27 | KEPEK [5mer-1115] |
| 17 | KTTPK [5mer-843] |
| 26 | REEVR [5mer-1141] |
| 19 | KFSMK [5mer-1132] |
| 14 | RDEKK [5mer-825] |
| 28 | RPMDR [5mer-837] |
| 14 | RNTDR [5mer-1122] |
| 23 | RHKDR [5mer-817] |
| 28 | RNEFK [5mer-1140] |
| 23 | KCSMK [5mer-1133] |
| 28 | RIMHK [5mer-820] |
| 26 | RTCKR [5mer-1134] |
| 27 | RPTNR [5mer-805] |
| 22 | KEEEK [5mer-1137] |
| 17 | RHTAR [5mer-1135] |
| 17 | RFMVR [5mer-1130] |
| 26 | RHHDK [5mer-839] |
| 15 | REWNR [5mer-836] |
| 29 | RFKVK [5mer-1121] |
| 12 | KAEHK [5mer-1111] |
| 30 | KKPVK [5mer-1124] |
| 25 | RIDGK [5mer-830] |
| 29 | RYPFK [5mer-1125] |
| 14 | KCHPK [5mer-1109] |
| 17 | RKMFR [5mer-806] |
